Assay [1] addresses actin of “ghost” muscle fibers (rabbit (endogenous in psoas muscle fibers)) (UniProt P68135). Nature of the assay: reconstitution into ghost muscle fibers, washes, SDS-PAGE; 20 µM labeled Tm added to ghost fibers in RB buffer for 15 hours at 4°C, then 20 µM troponin complex and 20 µM S1; unbound proteins removed by repeated washes with rigor buffer; 12% SDS gel quantified. The note with it: scale: actin per S1.

Assay [2] deals with “ghost” fiber reconstituted with labeled Tm (rabbit (endogenous in psoas muscle fibers) | not stated) (UniProt P68135). The description is as above. The note with it: scale: actin per TnI.

Chain of myosin subfragment-1 (domain or fragment) (Q28641 whole entry, the tested form may be a part): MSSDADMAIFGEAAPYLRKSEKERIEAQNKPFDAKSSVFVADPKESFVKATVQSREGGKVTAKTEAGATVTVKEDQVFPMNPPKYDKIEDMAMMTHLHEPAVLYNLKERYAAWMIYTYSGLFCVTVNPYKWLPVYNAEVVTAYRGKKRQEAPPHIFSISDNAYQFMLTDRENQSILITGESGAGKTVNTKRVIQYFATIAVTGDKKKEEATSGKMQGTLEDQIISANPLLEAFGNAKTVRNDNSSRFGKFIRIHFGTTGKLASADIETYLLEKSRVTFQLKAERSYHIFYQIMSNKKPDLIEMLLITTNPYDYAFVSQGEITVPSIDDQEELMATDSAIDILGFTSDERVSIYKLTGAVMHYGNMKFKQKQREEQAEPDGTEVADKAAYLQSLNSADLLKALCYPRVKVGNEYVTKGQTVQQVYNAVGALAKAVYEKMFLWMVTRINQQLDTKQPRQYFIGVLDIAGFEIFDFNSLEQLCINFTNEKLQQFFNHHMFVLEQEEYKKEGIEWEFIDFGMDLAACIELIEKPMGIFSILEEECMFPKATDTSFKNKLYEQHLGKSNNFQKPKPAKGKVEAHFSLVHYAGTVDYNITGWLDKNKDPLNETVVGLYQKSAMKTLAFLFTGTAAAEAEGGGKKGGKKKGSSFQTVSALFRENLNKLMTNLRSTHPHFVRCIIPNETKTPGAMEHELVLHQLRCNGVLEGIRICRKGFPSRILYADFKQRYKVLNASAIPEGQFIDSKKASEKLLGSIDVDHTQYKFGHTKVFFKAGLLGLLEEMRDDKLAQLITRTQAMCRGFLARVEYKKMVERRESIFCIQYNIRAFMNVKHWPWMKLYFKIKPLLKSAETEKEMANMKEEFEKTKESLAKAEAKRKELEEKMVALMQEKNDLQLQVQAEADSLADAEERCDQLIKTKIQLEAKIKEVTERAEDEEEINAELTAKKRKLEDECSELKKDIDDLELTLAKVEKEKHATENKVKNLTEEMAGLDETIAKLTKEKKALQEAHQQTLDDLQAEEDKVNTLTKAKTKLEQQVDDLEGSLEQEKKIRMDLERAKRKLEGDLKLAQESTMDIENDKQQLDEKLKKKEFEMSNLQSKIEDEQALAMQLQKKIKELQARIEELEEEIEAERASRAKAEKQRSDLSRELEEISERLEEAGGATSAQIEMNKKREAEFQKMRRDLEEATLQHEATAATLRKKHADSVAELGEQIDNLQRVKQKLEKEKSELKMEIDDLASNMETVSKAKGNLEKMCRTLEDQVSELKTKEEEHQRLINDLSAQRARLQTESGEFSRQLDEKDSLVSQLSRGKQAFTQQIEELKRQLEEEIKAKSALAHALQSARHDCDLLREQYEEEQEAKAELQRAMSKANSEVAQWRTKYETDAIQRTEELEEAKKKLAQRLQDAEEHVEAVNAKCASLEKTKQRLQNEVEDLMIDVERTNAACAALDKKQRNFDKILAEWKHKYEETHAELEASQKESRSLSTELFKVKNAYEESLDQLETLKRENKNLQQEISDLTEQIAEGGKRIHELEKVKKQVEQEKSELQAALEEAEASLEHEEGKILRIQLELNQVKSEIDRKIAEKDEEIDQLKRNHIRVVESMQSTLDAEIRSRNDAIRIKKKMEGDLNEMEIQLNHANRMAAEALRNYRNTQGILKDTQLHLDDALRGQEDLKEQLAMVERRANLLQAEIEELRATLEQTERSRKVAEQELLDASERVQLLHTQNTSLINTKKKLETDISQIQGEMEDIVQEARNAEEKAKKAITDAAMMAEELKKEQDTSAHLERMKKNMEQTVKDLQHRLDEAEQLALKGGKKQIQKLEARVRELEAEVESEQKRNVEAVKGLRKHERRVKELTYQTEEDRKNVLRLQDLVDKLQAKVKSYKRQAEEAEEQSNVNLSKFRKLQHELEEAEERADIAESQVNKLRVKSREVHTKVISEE
Chain of skeletal troponin complex (P02586 whole entry): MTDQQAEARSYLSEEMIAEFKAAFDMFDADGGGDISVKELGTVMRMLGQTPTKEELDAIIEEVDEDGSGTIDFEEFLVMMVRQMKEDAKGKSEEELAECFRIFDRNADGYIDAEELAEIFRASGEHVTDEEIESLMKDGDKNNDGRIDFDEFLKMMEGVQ
Chain of skeletal troponin complex (P02643 whole entry): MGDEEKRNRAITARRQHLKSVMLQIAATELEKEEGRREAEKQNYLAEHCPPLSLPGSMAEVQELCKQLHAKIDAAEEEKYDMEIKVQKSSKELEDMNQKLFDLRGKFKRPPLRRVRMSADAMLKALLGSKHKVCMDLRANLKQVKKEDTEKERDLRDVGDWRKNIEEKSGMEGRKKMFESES
Chain of skeletal troponin complex (P02641 whole entry): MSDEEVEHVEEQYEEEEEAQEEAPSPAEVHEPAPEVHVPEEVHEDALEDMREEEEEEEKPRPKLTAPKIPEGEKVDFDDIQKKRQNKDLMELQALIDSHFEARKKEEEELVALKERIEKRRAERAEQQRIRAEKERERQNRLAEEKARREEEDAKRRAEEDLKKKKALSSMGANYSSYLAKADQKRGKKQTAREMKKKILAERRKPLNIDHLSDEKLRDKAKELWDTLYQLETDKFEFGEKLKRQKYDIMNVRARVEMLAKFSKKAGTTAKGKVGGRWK

With “myosin subfragment-1 (domain or fragment)”, in assay [1], the ratio of the S1:actin intensity in reconstituted ghost fibers (SDS-PAGE) came out at 1.
As for “skeletal troponin complex (from UniProt P02586 1-160; P02643 1-182; P02641 1-279)”, the ratio of TnI:actin in the reconstituted fiber (SDS-PAGE) in assay [2] came out at 4.5.

Source of the values: publication PMC3118794.
